Experimental data reported in US20220324932A1 (CSPC MEGALITH BIOPHARMACEUTICAL, published 2022).

Target: T1, IL-2Rα (CD25) on the cell surface of mouse T cells (CTLL-2 cells; Treg cells of C57BL/6 mice) (mouse, UniProt P01590 22-268)
T1 sequence (looked up): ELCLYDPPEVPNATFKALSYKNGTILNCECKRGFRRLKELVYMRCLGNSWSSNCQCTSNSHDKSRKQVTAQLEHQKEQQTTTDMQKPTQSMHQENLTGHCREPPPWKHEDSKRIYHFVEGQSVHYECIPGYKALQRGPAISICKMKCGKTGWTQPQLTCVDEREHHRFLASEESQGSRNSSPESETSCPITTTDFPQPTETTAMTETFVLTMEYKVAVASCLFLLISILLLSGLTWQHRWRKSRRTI
Assay: cell-based or functional assay

B1: IL-2A2 (modified IL-2 protein with exogenous patch sequence IFKQTY replacing a portion of IL-2 Aldesleukin) (ligand)
chain: PTSSSTKKTQLQLEHLLLDLQMILNGINNYKNPKLTRMLIFKQTYPKKATELKHLQCLEEELKPLEEVLNLAQSKNFHLRPRDLISNINVIVLELKGSETTFMCEYADETATIVEFLNRWITFSQSIISTLT
B1 was tested, and the “fold decrease in bioactivity in inducing CTLL-2 cell growth, compared to parent IL-2 Aldesleukin” value was about 49 fold and the “percentage of Treg cells in blood of C57BL/6 mice after treatment” value was 0.32%.

B2: PEG-20K-IL-2A2 (IL-2A2 conjugated with 20 kDa methoxy-PEG-amine) (ligand)
chain: B1 chain
modifications: 20 kDa methoxy-PEG-amine conjugated by mTGase to the engineered Q residue of the IFKQTY patch
In the case of B2, the “percentage of Treg cells in blood of C57BL/6 mice after treatment” value is reported as 0.25%.
